One substance from paper PMC12410710 can be followed below.

Usually stoichiometry N stands for a count of units in the complex or per binding partner.

The test concerns the target CsrA (Salmonella Typhimurium) (UniProt P69916). In words: SEC; S75 Superdex column after Ni2+-NTA; SEC buffer 25 mM Tris, 150 mM NaCl, 10% glycerol, 1 mM DTT, pH 7.5; oligomeric state judged from the elution profile. (In gel filtration, larger molecules generally elute earlier.)

Chain of CsrA, P69916 1-61 (natural protein; other documents disagree on this pair) (P69916 whole entry): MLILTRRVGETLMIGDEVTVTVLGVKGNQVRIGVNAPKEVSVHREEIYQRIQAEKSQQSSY

Regarding “CsrA, P69916 1-61 (natural protein; other documents disagree on this pair)”, the stoichiometry N was 2.
